From publication PMC12386762 come the findings set out here.

The target of this assay is Escherichia coli RecA (Escherichia coli) (UniProt P0A7G6).
Chain of Escherichia coli RecA (Escherichia coli) (P0A7G6 whole entry): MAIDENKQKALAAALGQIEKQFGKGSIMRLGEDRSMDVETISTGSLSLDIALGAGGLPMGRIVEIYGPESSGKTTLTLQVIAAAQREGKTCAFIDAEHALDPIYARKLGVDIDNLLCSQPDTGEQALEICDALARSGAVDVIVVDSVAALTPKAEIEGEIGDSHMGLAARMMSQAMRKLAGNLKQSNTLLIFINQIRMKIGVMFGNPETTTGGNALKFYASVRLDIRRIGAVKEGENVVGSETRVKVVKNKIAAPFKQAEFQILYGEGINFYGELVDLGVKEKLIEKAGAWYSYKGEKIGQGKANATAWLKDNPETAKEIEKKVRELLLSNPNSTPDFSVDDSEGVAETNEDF

B1: Bacillus subtilis DprA (natural protein)
chain: MDQAAVCLTICRINQLLSPSLLLKWWKADPSMSLTSPVLQTVTRDQIKAAALKNEIEQFYPKLPRVLAAYREQGINTIPISSKQYPFWLKSIYDPPAVLFAKGDMTLLSKGRKIGIVGTRNPTAYGKQVVNHLTKEICRKGWVIVSGLASGIDGMSHAASIKAKGRTIGVIAGGFQHIYPRENLQLADHMAKHHILLSEHPPETKPQKWHFPMRNRIISGLSEGVIVVQGKEKSGSLITAYQALEQGREVFAVPGSLFDPYAGGPIKLIQQGAKAIWSAEDIFEELPERNVQYTEPF
Take B1: the activation of RecAEco (5 uM) dATP hydrolysis on (dT)21 by 0.3 uM DprABsu, against RecAEco alone was in the range of 7 to 8 fold.
